This note sets out measurements from FireProtDB (doi:10.1016/j.jmb.2005.06.006).

B1: Tryptophan synthase alpha chain, P0A877 (parent)
chain: MERYESLFAQLKERKEGAFVPFVTLGDPGIEQSLKIIDTLIEAGADALELGIPFSDPLADGPTIQNATLRAFAAGVTPAQCFEMLALIRQKHPTIPIGLLMYANLVFNKGIDEFYAQCEKVGVDSVLVADVPVEESAPFRQAALRHNVAPIFICPPNADDDLLRQIASYGRGYTYLLSRAGVTGAENRAALPLNHLVAKLKEYNAAPPLQGFGISAPDQVKAAIDAGAAGAISGSAIVKIIEQHINEPEKMLAALKVFVQPMKAATRS

Variants of B1 are the subject of this data set. Conditions: Escherichia coli (strain K12); pH 7.8; 25 °C; Urea; CD; Potassium phosphate 10 mM; transition: 3; structure 1WQ5; whole UniProt chain shown.

Several values for one entry are separate records, joined by “and”; a condition that tells them apart may be missing. Equal entries are not always repeated.

Regarding L127A, the “ddG of mutation (higher = less stable)” value was 0.73 kcal/mol and 0.55 kcal/mol; the denaturant m value was 2.55 kcal/mol/M and 1.1 kcal/mol/M; the unfolding free energy was 5.4 kcal/mol and 4.17 kcal/mol.

For I37A, the “ddG of mutation (higher = less stable)” value is 1.41 kcal/mol and 3.01 kcal/mol; the unfolding free energy was 4.72 kcal/mol and 1.71 kcal/mol.

As to L99A, the “ddG of mutation (higher = less stable)” value is 1.69 kcal/mol and 2.38 kcal/mol; the denaturant m value was 2.39 kcal/mol/M and 0.94 kcal/mol/M; the unfolding free energy was 4.44 kcal/mol and 2.34 kcal/mol.

As for L176A, the “ddG of mutation (higher = less stable)” value was 2.88 kcal/mol and 1.13 kcal/mol; the denaturant m value is 2.16 kcal/mol/M and 1.01 kcal/mol/M; the unfolding free energy was 3.25 kcal/mol and 3.59 kcal/mol.
